In patent publication US8822187B1, “Polypeptides, nucleic acid molecules, and methods for synthesis of triterpenes” (University of Kentucky Research Foundation, priority 2011, dated 2014):

Assays:
[1] = Substrate specificity of SSL-2 (bisfarnesyl ether formation); assay type: biochemical; settings: 37° C., 1 h
Description: The radioactivity incorporated in the zones corresponding to bisfarnesyl ether were determined by scintillation counting. Data represents mean±S.E.M.

[2] = Secondary enzyme assays of SSL-3 or SSL-2 with PSPP versus FPP; assay type: biochemical; settings: 2 mM NADPH, 1 μg enzyme, 37° C., 15 min
Description: (§1) Two primary enzyme assays (500 μl) were set up with 20 μg of purified SSL-1 or Nicotiana benthamiana squalene synthase (TSS) plus 40 μM ^3H-FPP. The assays were incubated at 37° C. for 1 h, then extracted 3× with 500 μl water saturated 1-butanol, pooled, and evaporated under a stream of nitrogen gas. The white residue was resuspended in 50 μl of 25 mM NH4HCO3 in 70% ethanol (v/v). An aliquot of the resuspension was analyzed by the acid phosphatase assay (described in supplemental FIG. 4) and shown to consist of 45% and 40% PSPP for the SSL-1 and TSS primary incubations, respectively. […] It was calculated that 1 μl of each resuspension contained ˜150 pmoles of 3H-PSPP. […] For comparison, enzyme assays were also set up containing 3 μM ^3H-FPP, 2 mM NADPH and either 1 μg each of SSL-1 plus SSL-3, or SSL-1 plus SSL-2. Additional control assays contained 5 μM ^3H-FPP, 2 mM NADPH, and either 1 μg of SSL-3 or SSL-2. The reactions were incubated at 37° C. for 15 min, stopped by addition of 50 μl 0.5 M EDTA, and extracted with 100 μl n-hexane. Aliquots of the hexane extracts, along with standards of squalene and botryococcene, were separated by silica TLC using n-hexane as the developing solvent. Standards were visualized with iodine vapors and the corresponding zones were analyzed by scintillation spectroscopy. […]

[3] = Purified SSL-1 mixed with B. braunii algal cell-free lysate, incorporation of radiolabeled FPP into botryococcene; assay type: biochemical, Botryococcus braunii; settings: purified SSL-1 mixed with algal cell-free lysate
Description: FIG. 4 depicts the dependence of the squalene synthase-like-1 enzyme on algal lysate for botryococcene biosynthesis. […] The SSL-1 gene containing a 5′ terminal sequence coding for a hexa-histidine tag was over-expressed in E. coli and the corresponding enzyme purified by cobalt affinity chromatography according to the manufacturer (Sigma). B. braunii lysate was prepared from cells collected at the indicated stages of culture development according to the procedure described by Okada, S. et al. (Arch Biochem Biophys 422: 110-118) and 10 μg of lysate protein was used per assay. Assays were incubated at 37° C. for 1 h, then the reaction products extracted with hexane. Aliquots of the hexane extracts was separated by silica TLC and the radioactivity migrating to zones corresponding to authentic standards of botryococcene and squalene determined by scintillation counting. Data represents mean±s.e.m.
Typical enzyme assays were initiated by mixing aliquots of purified enzyme with 50 mM Mops, pH 7.3, 20 mM MgCl2, 2.5 mM 2-mercaptoethanol, 10 μM [1-^3H]-FPP (˜2×10^5 dpm total), and 2 mM NADPH in total reaction volume of 50 μl. Reactions were incubated at 37° C. for 1 h and then extracted with 100 μl n-hexane or 100 ul MTBE. […] The standards were visualized with iodine vapors and TLC zones corresponding to the standards were scrapped and analyzed by scintillation spectrometry. […]

[4] = substrate: CC(C)=CCC/C(C)=C/CC/C(C)=C/CO[P@@](=O)(O)OP(=O)(O)O; assay: purified protein, by the assay type; settings: other: purified SSL-1, 3H-FPP, 0.1% triton X-100, 15 min at 37° C., PSPP as sole reaction product
[5] = Primary enzyme assay with 3H-FPP, PSPP content by acid phosphatase assay; assay type: biochemical; settings: 20 μg enzyme, 40 μM 3H-FPP, 37° C., 1 h
Description: as §1

Row | Molecule | Bisfarnesyl ether formed ([1]; substrate 10 μM 1-3H-FPP) | Bisfarnesyl ether formed ([1]; substrate 10 μM 1-3H-farnesol) [pmoles /h · μg protein] | Bisfarnesyl ether formed ([1]; substrate 10 μM FPP + 10 μM 1-3H-farnesol) | biosynthesis from PSPP versus FPP [2] | enhancement of NAD(P)H-dependent botryococcene biosynthesis [3] | Km [4] [µM] | kcat [4] [s⁻¹] | PSPP share of reaction product of primary incubation [5] [%]
1 | SSL-2: Botryococcus braunii race B squalene synthase-like 2 enzyme; bacterial form is truncated SSL-2-tr2 (protein) MVKLVEVLQHPDEIVPILQMLHKTYRAKRSYKDPGLAFCYGMLQRVSRSFSVVIQQLPDELRHPICVFYLILRALDTVEDDMNLPNEVKIPLLRTFHEHLFDRSWKLKCGYGPYVDLMENYPLVTDVFLTLSPGAQEVIRDSTRRMGNGMADFIGKDEVHSVAEYDLYCHYVAGLVGSAVAKIFVDSGLEKENLVAEVDLANNMGQFLQKTNVIRDYLEDINEEPAPRMFWPREIWGKYAQELADFKDPANEKAAVQCLNHMVTDALRHCEIGLNVIPLLQNIGILRSCLIPEVMGLRTLTLCYNNPQVFRGVVKMRRGETAKLFMSIYDKRSFYQTYLRLANELEAKCKGEASGDPMVATTLKHVHGIQKSCKAALSSKELLAKSGSALTDDPAIRLLLLVGVVAYFAYAFNLGDVRGEHGVRALGSILDLSQKGLAVASVALLLLVLLARSRLPLLTSASSKQ | 13.5 +/− 3.3 pmoles /h · μg protein | 0 | 16.3 +/− 0.4 pmoles /h · μg protein | efficiently catalyze the biosynthesis of squalene and botryococcene, respectively, from PSPP but not FPP | – | – | – | –
2 | Botryococcus braunii race B squalene synthase-like 1 (SSL-1), wild type, hexa-histidine tagged, SEQ ID NO: 2 (Botryococcus braunii) (protein) MTMHQDHGVMKDLVKHPNEFPYLLQLAATTYGSPAAPIPKEPDRAFCYNTLHTVSKGFPRFVMRLPQELQDPICIFYLLLRALDTVEDDMNLKSETKISLLRVFHEHCSDRNWSMKSDYGIYADLMERFPLVVSVLEKLPPATQQTFRENVKYMGNGMADFIDKQILTVDEYDLYCHYVAGSCGIAVTKVIVQFNLATPEADSYDFSNSLGLLLQKANIITDYNEDINEEPRPRMFWPQEIWGKYAEKLADFNEPENIDTAVKCLNHMVTDAMRHIEPSLKGMVYFTDKTVFRALALLLVTAFGHLSTLYNNPNVFKEKVRQRKGRIARLVMSSRNVPGLFRTCLKLANNFESRCKQETANDPTVAMTIKRLQSIQATCRDGLAKYDTPSGLKSFCAAPTPTK | – | – | – | – | up to 10 fold | 12.8 | 0.027 | 45
